Where two headings read alike, the source gives them in different places.

Holding throughout (experiment): EMSA
For orientation: A gel shift assay detects complexes by their altered migration in electrophoresis.

Data set [1] has as its target T1, CSL (CBF1);Notch1 RAMANK wild-type;MAML1 (human?;human;human?, UniProt Q06330;P46531;Q92585 23-449;1760-2126;13-74, ||).
The target of data set [2] is CSL (CBF1);Notch1 RAMANK R1985A;MAML1 (human?;human;human?, UniProt Q06330;P46531;Q92585 23-449;1760-2126;13-74, |R1984A|).
Data set [3] deals with T1, CSL (CBF1);Notch1 RAMANK wild-type;MAML1. This is another data set of the same source.
The target is the same in data set [4]. The source holds these as a separate data set.
For data set [5] the target is unchanged. The source holds these as a separate data set.
The target is the same in data set [6]. The source holds these as a separate data set.
For data set [7] the target is unchanged. The source holds these as a separate data set.

T1 sequence (Q06330 23-449, chain 1 of 3): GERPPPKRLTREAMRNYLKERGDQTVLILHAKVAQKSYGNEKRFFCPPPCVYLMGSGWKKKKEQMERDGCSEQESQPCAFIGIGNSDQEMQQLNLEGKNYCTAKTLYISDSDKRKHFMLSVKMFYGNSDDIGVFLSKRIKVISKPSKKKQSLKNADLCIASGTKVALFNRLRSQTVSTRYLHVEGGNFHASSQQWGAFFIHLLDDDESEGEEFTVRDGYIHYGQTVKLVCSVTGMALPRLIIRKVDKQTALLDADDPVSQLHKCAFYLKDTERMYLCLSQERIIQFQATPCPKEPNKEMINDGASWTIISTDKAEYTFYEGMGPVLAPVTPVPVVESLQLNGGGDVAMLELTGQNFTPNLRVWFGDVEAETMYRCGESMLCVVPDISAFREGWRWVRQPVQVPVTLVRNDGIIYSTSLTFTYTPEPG
T1 sequence (P46531 1760-2126, chain 2 of 3): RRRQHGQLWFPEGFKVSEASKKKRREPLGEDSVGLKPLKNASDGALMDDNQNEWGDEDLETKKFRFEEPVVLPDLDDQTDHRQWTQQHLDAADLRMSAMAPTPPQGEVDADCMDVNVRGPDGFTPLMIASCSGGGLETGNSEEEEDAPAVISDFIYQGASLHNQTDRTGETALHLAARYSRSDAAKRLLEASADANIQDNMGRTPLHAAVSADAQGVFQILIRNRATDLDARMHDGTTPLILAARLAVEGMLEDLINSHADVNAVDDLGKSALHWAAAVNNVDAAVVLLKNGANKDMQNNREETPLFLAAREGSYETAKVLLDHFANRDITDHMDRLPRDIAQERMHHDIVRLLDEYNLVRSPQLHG
T1 sequence (Q92585 13-74, chain 3 of 3): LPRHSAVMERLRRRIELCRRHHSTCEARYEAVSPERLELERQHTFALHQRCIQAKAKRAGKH
Chain of CSL (CBF1);Notch1 RAMANK R1985A;MAML1 (Q06330 23-449, chain 1 of 3): as the sequence (Q06330 23-449, chain 1 of 3) above
Chain of CSL (CBF1);Notch1 RAMANK R1985A;MAML1 (P46531 1760-2126 R1984A, chain 2 of 3): as the sequence (P46531 1760-2126, chain 2 of 3) above, with R225A counted along it
Chain of CSL (CBF1);Notch1 RAMANK R1985A;MAML1 (Q92585 13-74, chain 3 of 3): as the sequence (Q92585 13-74, chain 3 of 3) above

B1: 17bp SPS (CUL1) (dsDNA)
DNA 1: GAATTACGTGGGAATTATAAATAAATTACTCTTCACACTCTTATCC
DNA 2: GGATAAGAGTGTGAAGAGTAATTTATTTATAATTCCCACGTAATTC
B1: in data set [1], the binding result is recorded as “binds”.

B2: Single-site control (dsDNA)
DNA 1: GGAAACACGCCGTGGGAAAAAATTTGGC
DNA 2: GCCAAATTTTTTCCCACGGCGTGTTTCC
On to B2, for which the binding result in data set [2] and in data set [3] was “binds” throughout.

B3: FJX1 SPS (dsDNA)
DNA 1: GGACCTGTGAATCGCGCCCACCGGAGGGTCTCACAAGC
DNA 2: GCTTGTGAGACCCTCCGGTGGGCGCGATTCACAGGTCC
In the case of B3, the binding result in data set [4] is listed as “binds”.

B4: HES1 SPS (dsDNA)
DNA 1: AGTTACTGTGGGAAAGAAAGTTTGGGAAGTTTCACACGAGCCGTTC
DNA 2: GAACGGCTCGTGTGAAACTTCCCAAACTTTCTTTCCCACAGTAACT
For the molecule B4, the binding result in data set [5] is “binds”.

B5: HES4 SPS (dsDNA)
DNA 1: GGCGAGTGTGGGAAAGAATGCGGAGCCGGGTTCACACACCCCGCGG
DNA 2: CCGCGGGGTGTGTGAACCCGGCTCCGCATTCTTTCCCACACTCGCC
Take B5: the binding result in data set [4] was “binds”.

B6: 15bp SPS (SYT14) (dsDNA)
DNA 1: GCCAAACATGGGAAATTGCTGCTATTCTTTTCCCACTACAGCC
DNA 2: GGCTGTAGTGGGAAAAGAATAGCAGCAATTTCCCATGTTTGGC
For B6, in data set [6], the binding result was “binds”.

B7: HES5_E_long human (dsDNA)
DNA 1: GCGGAGTGTGGGAACGGCCGCGGCGCCCGGACTCCAGGCGCCAGGCCGC
DNA 2: GCGGCCTGGCGCCTGGAGTCCGGGCGCCGCGGCCGTTCCCACACTCCGC
For the molecule B7, in data set [7], the binding result is reported as “binds”.

B8: Hes5_E_long mouse (dsDNA)
DNA 1: GCCGAGTGTGGGAACGGCCGCGGCGCCCGGACCCCAGGCGCCGGGCCGC
DNA 2: GCGGCCCGGCGCCTGGGGTCCGGGCGCCGCGGCCGTTCCCACACTCGGC
On to B8, for which the binding result in data set [7] is “binds”.

The values above are taken from paper PMC3024583.
